# Results: patent US20240166738A1 (Alector, published 2024)
# Tests used:
# human TMEM106B = human TMEM106B (human, UniProt Q9NUM4 2-274); assay: cell-based or functional assay; further: test concentration or dose not given here
# [1] = biological target: T1, GST-TMEM106B (truncated, comprising amino acids 122-210 of SEQ ID NO:1) (human, UniProt Q9NUM4 122-210); assay: pre-mix epitope binning, antibody immobilized on chip array
# T1 construct: GST written first by the name only; also called truncated GST-TMEM106B fusion protein; GST-TMEM106B polypeptide fusion; not shown: GST fusion partner
Binder,% Protection from CPE (human TMEM106B),binding result [1]
"TM-4 (antibody, V domains shown) VH: EVQVQQSGPVLVKPGASVKMSCKASGYTFTDYYMNWVKQSHGKNLEWIGVINPYNGGTSYHQKFKGKATLTVDKSSSTAYMELNSLTSEDSAVYYCARAATVVAGFDYWGQGTTLTVSS VL: QAVVTQESALTTSPGETVTLTCRSSTGAVTTSNYANWVQEKPDHLFTGLIGGTNNRAPGVPARFSGSLIGDKAALTITGAQTEDEAIYFCVLWYSNHLVFGGGTKLTVL",3.7%,
"TM-23 (antibody, V domains shown) VH: QVQLQQSGAELIRPGTSVKVSCKASGYAFTNYLIEWVKKRPGQGLEWIGVINPGSGITNYNEKFKGKATLTADKSSSTAYMQLSSLTSEDSAVYFCARSDFITTVVADYWGQGTTVTVSS VL: DIVVTQTPLSLPVSFGDQVSISCRSSQSLTNYYGNTYLSWYLHKPGQSPQLLIYGISNRFSGVPDRFSGSGSGTDFTLKISTIKPEDLGMYYCLQGTHQPRTFGGGTKLEIK",3.7%,
"TM-82 (antibody, V domains shown) VH: QVQLQQSGAELVRPGTSVRVSCKASGYAFTNYLIEWIKQRPGQGLEWIGVINPGSGITDYSEKFKGKARLTADKSSSTAYMQLSSLTSDDSAVYFCTRSPFITTVVADYWGQGTTVTVSS VL: DVVVTQTPLSLPVSFGDQVSISCRSSQSLANTYGNTYLSWYLHTPGQSPQLLIFGISNRFSGVPDRFSGSGSGTDFTLKISTIKPEDLGVYYCLQGTHPPRTFGGGTKLEMK",3.2%,
"TM-12 (antibody, V domains shown) VH: EVQLQQSGAELMRPGASVKLSCTASGFNIQDYYMYWVKQRPEQGLEWIGRIDPEDGDAEYAPKFQGKATMTADTSSNTAYLQLSSLTSEDTAVYYCSTRVIYDGYYRTMDCWGQGTSVTVSS VL: DVLMTQIPLSLPVSLGDQASISCRSSQTIVHSNGNTYLEWYLKKPGQSPKLLIDKISNRFSGVPDRFSGSGSGTDFTLKISRVEAEDLGVYYCFQGSHVPYTFGGGTKLEIK",95.9%,
"TM-41 (antibody, V domains shown) VH: EVQLQQSGAELVKPGASIKLSCTASGFNIKDCYMHWVKQRTEQGLEWIGRIDPEDGTTNFAPKFQDRATITADTSSNTAYLQLTSLTSEDTAVYYCAREWDSGAYWGQGTLVTVSA VL: not shown",3.5%,
"TM-62 (antibody, V domains shown, mouse hybridoma mAb) VH: QVQLQQPGTELVRPGSSVKLSCKAAGYTFTRYWMHWVKQRPIQGLEWIGNIDPSDSETQYNPKFKDKATLTVDRSSSTAYMHLSSLTSEDSAVYYCARLTTLDYAMDYWGQGTSVTVSS VL: QIVLTQSPAIMSASPGEKVTISCSASSSVSYMYWYQQKAGSSPKPWIHRTSNLASGVPARFSGSGSGTSYSLTIRSMEAEDAATYYCQQYHSYPPTFGVGTKLELK",84.2%,no binding (tested: 55 nM antigen (2 ug/mL))
"TM-49 (antibody, V domains shown, mouse hybridoma mAb) VH: QVQLQQPGAELVRPGSSVKLSCKASGYTFTRFWMHWVKQRPIQGLEWIGNIDPSDSQTHYNQKFKDKATLTVDKSSSTAYMQLSSLTSEDSAVYYCARLITVDYAMDYWGQGTSVTVSS VL: QIVLTQSPAIMSASPGEKVTISCSASSSVSYMYWYQQKPGSSPKPWIHRTSNLASGVPVRFSGSGSGTSYSLTISSMEAEDAATYYCQQYHSYPPTFGAGTKLELK",49.6%,no binding (tested: 55 nM antigen (2 ug/mL))
"TM-27 (antibody, V domains shown, mouse hybridoma mAb) VH: QVQLQQSGAELVRPGTSVKVSCKASGYALTNYLIEWVKQRPGQGLEWIGVINPGSGSTKYNEKFKGKATLTADKSSSTAYMQLSSLTSEDSAVYFCARIIYDHDWYFDVWGTGTTVTVSS VL: QIVLTQSPAIMSASPGEKVTISCSASSSISYMYWYQQKPGSSPKPWIYRTSTLASGVPARFSGSGSGTSYSLTISSMEAEDAATYYCQQYHSYPRTFGGGTKLEIK",5.2%,no binding (tested: 55 nM antigen (2 ug/mL))
"TM-44 (antibody, V domains shown) VH: EVQLVESGGGLVKPGGSLKLSCAASGFTFSDYGMHWVRQAPEKGLEWVAYISSGSSTIYYADTVKGRFTISRDNAKNTLFLQMTSLRSEDTAMYYCARNYGSPYAMDYWGQGTSVTVSS VL: not shown",3.2%,
"TM-9 (antibody, V domains shown) VH: EVQLVESGGDLVKPGGSLKLSCVASGFTFSGYGMSWVRQTPDKRLEWVATISSGSFYIYYPDSVKGRLTVSRDNAKNTLYLQMSSLKSEDTAIYYCARQNFYYGCEDYWGQGTTLTVSS VL: DIVMTQAAFSNPVTLGTSASISCRSSKSLLHSNGITYLYWYLQKPGQSPQLLIYQMSNLASGVPNRFSSSGSGTDFTLRISRVEAEDVGVYYCAQNLELPWTFGGGTKLEIK",96.4%,
"TM-68 (antibody, V domains shown) VH: EVQLQQSGAELVRPGASVKLSCTASGFNIKDDYMHWVRQRPEQGLEWIGWIDPENGDTEYASKFQGKATMTADTSSNTAYLHLSSLTSEDTAVYYCTKPQTATTCWGQGTLVTVSS VL: DIVMTQAAFSNPVTLGTSVSISCSSSKSLLHSSGITYLYWYLQRPGQSPQLLIYRMSNLASGVPDRFSGSGSGTDFTLRISRVEAEDVGVYYCAQMLERPWTFGGGTKLEIK",3.5%,
"TM-74 (antibody, V domains shown) VH: EVQLQQSGPELVKPGASVKMSCKASGYTFTSYVIHWVKQKPGQGLEWIGFINPNNDGTKYNEKFRGKATLTSDKSSSTAYMELSSLTSEDSAVYYCARPYYDYEGYTMDYGGQGTSVTVSS VL: DVVMTQSQKFMSTSVEDRVSITCKASQNVRSAVAWYQQKPGQSPKALIYLASNRHTGVPDRFAGSGSGTDFTLTISSVQSEDLADYFCLQHWKYPFTFGSGTKLEIK",3.7%,
"TM-81 (antibody, V domains shown, mouse hybridoma mAb) VH: QVQLQQSGAELVKPGASVKLSCKASGYTFTSYWMHWVKQRPGQGLEWIGNIDPSDSEIHYNQKFKDKATLTVDKSSSTAYIQLSSLTSEDSAVYYCARSPAGQILDYWGQGTTVTVSS VL: not shown",4.6%,no binding (tested: 55 nM antigen (2 ug/mL))
"TM-56 (antibody, V domains shown, mouse hybridoma mAb) VH: QVHLQQSGAELAKPGASVKLSCKASGYTFTSYWMHWVKQRPGQGLEWIGYINPSSGYSKYNQRFKDKATLTADKSSTTAYMHLSSLTYADSAVYYCTREGGSISDWYFDVWGTGTTVTVSS VL: DIEMTQAAPSVPVTPGESVSISCRSSKSLLQNNGNTYLYWFLQRPGQPPQLLIYRMSNLASGVPDRFSGSGSGTAFTLRISRVEAEDVGVYYCMQHLEYPYTFGGGTKLEIK",89.7%,no binding (tested: 55 nM antigen (2 ug/mL))
"TM-85 (antibody, V domains shown, mouse hybridoma mAb) VH: QVQLQQPGAELVRAGTSVKLSCKASGYTFIGYWMHWVKQRPGRGLEWIGRIDPYSGDTRYNEKFKNKATLTVDKPSSTAYMQLSSLTSEDSAVYYCARYGLGHAMDYWGQGTSVTVSS VL: DIAMSQSQKFMSTSVGDRVSVTCKASQNVGTNVAWYQQKPGQSPKALIYSASYRYSGVPDRFTGSGSGTDFTLTISNVQSEDLAEYFCQQYNSYPLTFGAGTKLEMK",5.2%,no binding (tested: 55 nM antigen (2 ug/mL))
"TM-66 (antibody, V domains shown, mouse hybridoma mAb) VH: EVMLVESGGALVEPGGSLKLSCAASGITFSNYAMSWIRQTPEKRLEWVATIGSVGSYTYYPDSVKGRFTISRDNARNTLYLQMSSLRSEDTAMYYCARQEGSSHFDYWGQGTTLTVSS VL: DVVVTQTPPSLPVSFGDQVSISCRSSQSLVNSYGKTFLSWYLHKPGQSPQLLIYGISNRFSGVPDRFSGSGSGTVFTLKISTIKPEDLGMYYCLQGTHPPLTFGAGTKLEMK",5.9%,no binding (tested: 55 nM antigen (2 ug/mL))
"TM-75 (antibody, V domains shown, mouse hybridoma mAb) VH: EVQLQQSGPELVKPGASVKMSCKASGYTFTSYVMHWVKQKPGQGLEWIGYINPYNDGTKYNEKFKGKATLTSDKSSSTAYMELSSLTSEDSAVYYCARGGWFPYAMDYWGQGTTVTVSS VL: not shown",5.1%,no binding (tested: 55 nM antigen (2 ug/mL))
"TM-6 (antibody, V domains shown, mouse hybridoma mAb) VH: QVQLQQSGAELVKPGASVKLSCKASGYTFTEYTIHWVKQRSGQGLEWIGWFYPGSTYIDYNEKFKDKATLTADKSSSTVYLELSRLTSEDSAVYFCARHEEDYSNWFPFWGQGTLVTVSA VL: DIQMSQSSSYLSVSLGGRVTITCKASDHINNWLAWYQQKPGNAPRLLISGATSLETGVPSRFSGSGSGKDYTLSITSLQTEDVATYYCQQYWSSPYTFGGGTKLEIK",4.4%,no binding (tested: 55 nM antigen (2 ug/mL))
"TM-17 (antibody, V domains shown) VH: QVQLQQSGAELIRPGTSVKVSCKASGYAFTDYLIEWVKQRPGQGLEWIGVINPGSGGTNYNEKFKGKAKLTADKSSSTAYMQLSSLTSEDSAVYFCVRSSYGVYVAYPMDYWGQGTSVTVSS VL: DIQMTQSPSSLSASLGERVSLTCRASQDIGSNLNWLQQEPDGTIKRLIYATSSLDSGVPKRFSGSRSGSDYSLTISSLESEDFVDYYCLQYASSPRTFGGGTKLEIK",3.7%,
"TM-70 (antibody, V domains shown) VH: EVQLVESGGALVKPGGSLKLSCAASGFTFSNYAMSWVRQTPEKRLEWVATIGYGGSYSYYPDSVKGRFTISRDNAKYTLYLQMSGLRSEDTALYYCARQDSNYEGVWFAYWGQGTLVT VL: not shown",3.4%,
"TM-31 (antibody, V domains shown, mouse hybridoma mAb) VH: QVQLQQSGAELAKPGASVKVSCKASGYTFISYWMNWVKQRPGQGLEWIGYINPTSGYTRYNQKFKDKATLTADKSSSTAYMQLSSLTYEDSAVYYCARSPPTVVLIGYFDYWGQGTTLTVSS VL: DIKMTQSPSSMYASLGERVTFTCKASQDINSYLSWFQQKPGKSPKTLIYRGNGLVDGVPSRFSGSGSGQDYSLTISSLEYEDMGIYYCLQYDEFPFTFASGTKLEIK",7.7%,no binding (tested: 55 nM antigen (2 ug/mL))
